Reference: publication PMC3299909 (Molecular Cell, 2012)

Molecular target: Sec5 (bone marrow-derived macrophages) (mouse (endogenous in bone …, UniProt Q9D4H1 1-924))
Assay: co-IP

Sec5 (bone marrow-derived macrophages) (mouse, sequence (Q9D4H1 whole entry): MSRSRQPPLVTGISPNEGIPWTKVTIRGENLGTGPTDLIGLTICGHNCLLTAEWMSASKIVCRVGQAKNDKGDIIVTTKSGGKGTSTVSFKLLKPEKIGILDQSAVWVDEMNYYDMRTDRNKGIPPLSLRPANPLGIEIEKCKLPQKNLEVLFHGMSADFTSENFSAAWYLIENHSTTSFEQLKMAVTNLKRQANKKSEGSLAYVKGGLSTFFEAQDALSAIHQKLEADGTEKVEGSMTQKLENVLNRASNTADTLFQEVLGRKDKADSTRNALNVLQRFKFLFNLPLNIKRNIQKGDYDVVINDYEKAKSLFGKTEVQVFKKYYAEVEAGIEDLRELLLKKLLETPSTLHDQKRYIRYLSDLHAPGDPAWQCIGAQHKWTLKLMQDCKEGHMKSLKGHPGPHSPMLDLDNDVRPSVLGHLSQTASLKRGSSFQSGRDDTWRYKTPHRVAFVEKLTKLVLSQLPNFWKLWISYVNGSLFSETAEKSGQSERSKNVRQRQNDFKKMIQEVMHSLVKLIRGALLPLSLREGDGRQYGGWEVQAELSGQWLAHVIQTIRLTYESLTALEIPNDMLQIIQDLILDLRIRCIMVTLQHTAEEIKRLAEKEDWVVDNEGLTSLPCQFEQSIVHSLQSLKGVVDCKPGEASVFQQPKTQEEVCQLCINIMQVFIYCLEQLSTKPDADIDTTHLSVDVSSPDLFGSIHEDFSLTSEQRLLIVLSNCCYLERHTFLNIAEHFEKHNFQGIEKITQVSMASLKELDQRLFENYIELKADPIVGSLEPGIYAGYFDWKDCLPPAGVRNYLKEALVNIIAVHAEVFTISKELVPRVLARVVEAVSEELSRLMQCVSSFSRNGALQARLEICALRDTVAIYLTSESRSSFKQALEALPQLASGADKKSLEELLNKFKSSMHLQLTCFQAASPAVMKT

B1: Exo84 (bone marrow-derived macrophages) (natural protein, UniProt Q6PGF7 1-716, looked up)
chain: MSDSGASRLRRQLESGGFEARLYVKQLSQQSDGDRDLQEHRQRVQALAEETAQNLKRNVYQNYRQFIETAREISYLESEMYQLSHLLTEQKSSLESIPLALLPAAAAGASAGEDTAGAGPRERGAVQAGFLPGPAGVPREGSGTGEEGKQRTLTTLLEKVEGCRDLLETPGQYLVYNGDLVEYDADHMAQLQRVHGFLMNDCLLVATWLPQRRGMYRYNALYPLDRLAVVNVKDNPPMKDMFKLLMFPESRIFQAENAKIKREWLEVLEETKRALSDKRRREQEEAAAPRAPPPVTSKGSNPFEDEDDEELATPEAEEEKVDLSMEWIQELPEDLDVCIAQRDFEGAVDLLDKLNHYLEDKPSPPPVKELRAKVDERVRQLTEVLVFELSPDRSLRGGPKATRRAVSQLIRLGQCTKACELFLRNRAAAVHTAIRQLRIEGATLLYIHKLCHVFFTSLLETAREFETDFAGTDSGCYSAFVVWARSAMGMFVDAFSKQVFDSKESLSTAAECVKVAKEHCQQLGEIGLDLTFIIHALLVKDIQGALHSYKEIIIEATKHRNSEEMWRRMNLMTPEALGKLKEEMKSCGVSNFEQYTGDDCWVNLSYTVVAFTKQTMGFLEEALKLYFPELHMVLLESLVEIILVAVQHVDYSLRCEQDPEKKAFIRQNASFLYETVLPVVERRFEEGVGKPAKQLQDLRNASRLLRVNPESTTSVV
In the case of B1, the “fold increase of the association in Tipe2-/- cells over wild type cells” value is reported as roughly 3 fold.
